Consider four molecules from patent US20230134571A1 (INTERNATIONAL AIDS VACCINE INITIATIVE, published 2023).

Among the targets are HIV Env, isolate TRO.11 (HIV); HIV Env, isolate CNE20 (HIV); HIV Env, isolate PVO.4 (HIV); HIV Env, isolate CNE17 (HIV); HIV Env, isolate CNE19 (HIV); HIV Env, isolate CNE30 (HIV).
Common to all, as to assay: cell-based or functional assay
Experiment [1] has as its target HIV Env, isolate CAAN5342.A2 (HIV).
In experiment [2] the target is HIV Env, isolate 1056_10_TA11_1826 (HIV).
Experiment [3] deals with HIV Env, isolate Ce1176_A3 (HIV).
For experiment [4], the target named is HIV Env, isolate ZM197M.PB7 (HIV).
Experiment [5] concerns the target HIV Env, isolate ZM214M.PL15 (HIV).
For experiment [6], the target named is HIV Env, isolate ZM233M.PB6 (HIV).
Experiment [7] deals with HIV Env, isolate Du172.17 (HIV).
The target of experiment [8] is HIV Env, isolate Ce703010054_2A2 (HIV).
The target of experiment [9] is HIV Env, isolate CAP45.2.00.G3 (HIV).
Experiment [10] concerns the target HIV Env, isolate BF1266.431a (HIV).
The target in experiment [11] is HIV Env, isolate 6240_08_TA5_4622 (HIV).
Experiment [12] addresses HIV Env, isolate HIV-001428-2.42 (HIV).
Experiment [13] addresses HIV Env, isolate WEAU_d15_410_5017 (HIV).
Experiment [14] deals with HIV Env, isolate P1981_C5_3 (HIV).
Experiment [15] has as its target HIV Env, isolate Ce2060_G9 (HIV).
Experiment [16] deals with HIV Env, isolate 62357_14_D3_4589 (HIV).

B1: ePGDM9 (antibody, V domains shown)
VH: QAQLVQSGPEVRKPGTSVKVSCKNPGNTLTTYDLHWVRQVPGQGLQWMGWISHEGDKKVIVERFKAKVTIDWDRSTNTAYLQLSGLTSEDTAVYYCAKGSKHRLRDYALYDEDGALNWAVDVDYLANLEFWGQGTAVTVSS
VL: DIVLTQSPLSLSVTPGESASISCKSSQSLIHGDRNNYLAWYVQKPGRSPQLLIDLASERASGVPDRFSGSGSRKDFTLKISRVETEDVGTYYCMQGRESPWTFGQGTKVDIK
As for B1, the “IC80 (µg/ml) with constrains” value in [1] was 70.1 µg/mL; in [2] it was 3.61 µg/mL; in experiment [3] it was 0.089 µg/mL; in experiment [4], 0.092 µg/mL; in experiment [5], above 100 µg/mL; in experiment [6] it was 0.007 µg/mL. Further, the “IC80 (µg/ml) with constrains” value in [7] came out at 3.46 µg/mL; in the experiment with HIV Env, isolate TRO.11 it was 0.652 µg/mL; in [8], 0.032 µg/mL; in experiment [9] it was 0.005 µg/mL; in experiment [10], 0.008 µg/mL; in [11], 6.6 µg/mL. The “IC80 (µg/ml) with constrains” value came out at 0.008 µg/mL in experiment [12]; 0.008 µg/mL with HIV Env, isolate CNE20; 0.009 µg/mL in experiment [13]; 7.7 µg/mL in the experiment with HIV Env, isolate PVO.4; 0.585 µg/mL in experiment [14]; 0.538 µg/mL in experiment [15]. Moreover, the “IC80 (µg/ml) with constrains” value in experiment [16] was 38 µg/mL; in the experiment with HIV Env, isolate CNE17, 0.01 µg/mL; with HIV Env, isolate CNE19 it was 0.012 µg/mL; in the experiment with HIV Env, isolate CNE30, above 100 µg/mL.

B2: ePGDM5 (antibody, V domains shown)
VH: QAQLVQSGPEVRKPGTSVKVSCKNPGNTLTTYDLHWVRQVPGQGLQWMGWISHEGDKKVIVERFKAKVTIDWDRSTNTAYLQLSGLTSEDTAVYYCAKGSKHRLRDYALYDEDGALNWAVDVDYLANLEFWGQGTAVTVSS
VL: DFVLTQSPLSLSVTPGESASISCKSDHSLQHGDRNNYLAWYVQKPGRSPQLLIDLASERASGVPDRFSGSGSRKDFTLKIDRVEAEDVGTYYCMQGRESPWTFGQGTKVDIK
B2: the “IC80 (µg/ml) with constrains” value is above 100 µg/mL in experiment [1]; 3.57 µg/mL in experiment [2]; 0.088 µg/mL in [3]; 0.141 µg/mL in experiment [4]; above 100 µg/mL in experiment [5]; 0.007 µg/mL in experiment [6]. Besides, the “IC80 (µg/ml) with constrains” value in experiment [7] was determined as 5.98 µg/mL; with HIV Env, isolate TRO.11 it was 1.26 µg/mL; in experiment [8], 0.034 µg/mL; in [9] it was 0.004 µg/mL; in experiment [10] it was 0.014 µg/mL; in [11] it was 8.09 µg/mL. Also, the “IC80 (µg/ml) with constrains” value in experiment [12] worked out at 0.013 µg/mL; with HIV Env, isolate CNE20 it was 0.015 µg/mL; in experiment [13], 0.003 µg/mL; with HIV Env, isolate PVO.4, 5.57 µg/mL; in experiment [14], 1.18 µg/mL; in [15], 0.044 µg/mL. In addition, the “IC80 (µg/ml) with constrains” value in [16] was 39.9 µg/mL; in the experiment with HIV Env, isolate CNE17, 0.028 µg/mL; in the experiment with HIV Env, isolate CNE19 it was 0.012 µg/mL; with HIV Env, isolate CNE30, above 100 µg/mL.

B3: PGDM1400 (antibody, V domains shown)
VH: QVHLTQSGPEVRKPGTSVKVSCKAPGNTLKTYDLHWVRSVPGQGLQWMGWISHEGDKKVIVERFKAKVTIDWDRSTNTAYLQLSGLTSGDTAVYYCAKGSKHRLRDYALYDDDGALNWAVDVDYLSNLEFWGQGTAVTVSS
VL: DFVLTQSPHSLSVTPGESASISCKSSHSLIHGDRNNYLAWYVQKPGRSPQLLIYLASSRASGVPDRFSGSGSDKDFTLKISRVETEDVGTYYCMQGRESPWTFGQGTKVDIK
For B3, the “IC80 (µg/ml) with constrains” value in [1] was above 100 µg/mL; in [2], 13.5 µg/mL; in experiment [3], 2.1 µg/mL; in experiment [4], 0.282 µg/mL; in experiment [5] it was above 100 µg/mL; in [6], 0.007 µg/mL. In addition, the “IC80 (µg/ml) with constrains” value in [7] was 21.7 µg/mL; in the experiment with HIV Env, isolate TRO.11, 0.823 µg/mL; in experiment [8] it was 0.057 µg/mL; in [9], 0.005 µg/mL; in [10] it was 0.024 µg/mL; in experiment [11], above 100 µg/mL. Further, the “IC80 (µg/ml) with constrains” value stood at 0.054 µg/mL in [12]; 0.021 µg/mL with HIV Env, isolate CNE20; 0.3 µg/mL in [13]; 13.6 µg/mL in the experiment with HIV Env, isolate PVO.4; 75.6 µg/mL in [14]; 0.099 µg/mL in experiment [15]. Further, the “IC80 (µg/ml) with constrains” value in experiment [16] was above 100 µg/mL; in the experiment with HIV Env, isolate CNE17, 0.018 µg/mL; with HIV Env, isolate CNE19, 0.019 µg/mL; with HIV Env, isolate CNE30 it was above 100 µg/mL.

B4: ePGDM13 (antibody, V domains shown)
VH: QAQLVQSGPEVRKPGTSVKVSCKNPGNTLTTYDLHWVRQVPGQGLQWMGWISHEGDKKVIVERFKAKVTIDWDRSTNTAYLQLSGLTSEDTAVYYCAKGSKHRLRDYALYDEDGALNWAVDVDYLANLEFWGQGTAVTVSS
VL: DIVLTQSPLSLSVTPGESASISCKSSHSLQHGDRNNYLAWYVQKPGRSPQLLLDLASERASGVPDRFSGSGSEKDFTLKISRVETEDVGTYYCMQGRESPWTFGQGTKVDIK
B4: the “IC80 (µg/ml) with constrains” value was above 100 µg/mL in experiment [1]; 6.03 µg/mL in [2]; 0.124 µg/mL in experiment [3]; 0.24 µg/mL in [4]; above 100 µg/mL in experiment [5]; 0.006 µg/mL in [6]. The “IC80 (µg/ml) with constrains” value amounted to 6 µg/mL in experiment [7]; 1.41 µg/mL with HIV Env, isolate TRO.11; 0.031 µg/mL in experiment [8]; 0.007 µg/mL in experiment [9]; 0.016 µg/mL in experiment [10]; 12.6 µg/mL in experiment [11]. In addition, the “IC80 (µg/ml) with constrains” value in experiment [12] amounted to 0.011 µg/mL; with HIV Env, isolate CNE20, 0.015 µg/mL; in [13] it was 0.012 µg/mL; with HIV Env, isolate PVO.4 it was 11.8 µg/mL; in [14] it was 1.28 µg/mL; in [15] it was 0.071 µg/mL. In addition, the “IC80 (µg/ml) with constrains” value was 69.5 µg/mL in experiment [16]; 0.031 µg/mL with HIV Env, isolate CNE17; 0.013 µg/mL with HIV Env, isolate CNE19; above 100 µg/mL with HIV Env, isolate CNE30.
